In paper PMC8556157:

Target: Type 4 LDH (BL105A_0985), aromatic lactate dehydrogenase (ALDH) of B. longum ssp. longum 105-A (Bifidobacterium longum ssp. longum 105-A) (UniProt Q8G593)
Test: SEC; native molecular mass of the purified recombinant enzyme estimated by size exclusion chromatography (Supplementary Fig. 7b); dimer of the 33.9 kDa chain

Work on “Type 4 LDH (BL105A_0985), aromatic lactate dehydrogenase (ALDH) of B. longum ssp. longum 105-A (from UniProt Q8G593 1-545) (enzyme)” yielded a stoichiometry N of 2.
